Target: canine LILRB3 (ENSCAFG00000028453) on normal MDCK cells (dog)
Test: cell-based or functional assay

canine LILRB3 (ENSCAFG00000028453) on normal MDCK cells (dog), sequence (chain, as listed by the source limits assumed, form in doubt): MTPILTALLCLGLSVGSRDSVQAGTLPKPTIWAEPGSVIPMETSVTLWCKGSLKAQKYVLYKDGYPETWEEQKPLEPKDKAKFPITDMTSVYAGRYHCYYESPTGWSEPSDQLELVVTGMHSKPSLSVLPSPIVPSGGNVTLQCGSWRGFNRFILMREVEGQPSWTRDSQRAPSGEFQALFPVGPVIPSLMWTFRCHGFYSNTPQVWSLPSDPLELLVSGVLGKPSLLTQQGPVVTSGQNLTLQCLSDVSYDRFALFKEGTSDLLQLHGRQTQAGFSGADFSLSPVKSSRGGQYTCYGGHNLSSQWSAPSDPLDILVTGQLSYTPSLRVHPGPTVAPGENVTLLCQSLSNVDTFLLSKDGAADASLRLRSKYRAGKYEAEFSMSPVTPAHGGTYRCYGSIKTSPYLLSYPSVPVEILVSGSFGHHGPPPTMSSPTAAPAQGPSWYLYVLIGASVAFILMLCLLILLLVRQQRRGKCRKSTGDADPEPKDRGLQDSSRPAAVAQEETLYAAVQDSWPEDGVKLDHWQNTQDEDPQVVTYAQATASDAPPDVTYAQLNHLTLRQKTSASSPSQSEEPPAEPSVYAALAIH

residual rate of SCRB^KD (Scribble knockdown) MDCK cells in mixed culture with normal MDCK cells, 24 hr: 20%
Substance: recombinant protein DLA88-α3 (from UniProt P18466 207-299) (ligand)
